The target in the assay is beta-amyloid (Aβ) peptide. The assay is described as follows: ITC; isothermal titration calorimetry of HAEEPGP with Aβ peptides; also with zinc ions, which enhanced the interaction; which peptide was titrated, buffer and temperature not told. As to conditions: both partners purified.

B1: HAEEPGP peptide (peptide)
peptide: HAEEPGP
notes: HAEE tetrapeptide with PGP amino acids added to its C-terminus to stabilize the peptide; The 125I label was used for pharmacokinetics only, not for the calorimetry
Regarding B1, the Kd (usually the equilibrium constant for the complex coming apart) stood at 1.64 µM.

For the origin of these results see PMC12726774, “HAEEPGP Peptide Efficiently Prevents Alzheimer's Disease Pathology in Vivo” (Alzheimer's & Dementia, 2025).
